# Measured values as given in the supplement of paper PMC9112550, “Optimization of the antimicrobial peptide Bac7 by deep mutational scanning” (BMC Biology, 2022).
# System: Escherichia coli TOP10
# Test: shrunken log2 fold change of peptide-encoding DNA abundance (4.5 h post-induction vs induction); higher = less antimicrobial activity (less host growth inhibition)
# Settings: time post-induction: 4.5 h; library: site-saturation at positions 5, 18, 19, 20
# 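Further: peptides expressed intracellularly from a pBAD plasmid library in pooled LB shake-flask culture, induced with 0.3% L-arabinose, DNA abundance read by NGS, three biological replicates, DESeq2 with apeglm shrinkage.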
row,Sequence,shrunken log2 fold change
1,RRIRCRPPRLPRPRPRPPEPPRP,0.457
2,RRIRRRPPRLPRPRPRPLWYPRP,-0.166
3,RRIRCRPPRLPRPRPRPKLCPRP,0.0418
4,RRIRCRPPRLPRPRPRPPCPPRP,0.487
5,RRIRDRPPRLPRPRPRPMGGPRP,0.0169
6,RRIRRRPPRLPRPRPRPRDYPRP,-0.116
7,RRIRFRPPRLPRPRPRPFLEPRP,-0.355
8,RRIRFRPPRLPRPRPRPRYPPRP,-0.38
9,RRIRRRPPRLPRPRPRPMRLPRP,0.667
10,RRIRTRPPRLPRPRPRPMGDPRP,-0.0264
11,RRIRQRPPRLPRPRPRPMQSPRP,0.108
12,RRIRIRPPRLPRPRPRPSHLPRP,-0.622
13,RRIRQRPPRLPRPRPRPEFYPRP,-0.0478
14,RRIRKRPPRLPRPRPRPCIAPRP,-0.0581
15,RRIRLRPPRLPRPRPRPCGRPRP,0.147
16,RRIRRRPPRLPRPRPRPLRVPRP,0.966
17,RRIRKRPPRLPRPRPRPNQSPRP,0.341
18,RRIRYRPPRLPRPRPRPQHHPRP,-0.55
19,RRIRLRPPRLPRPRPRPYMLPRP,-1.2
20,RRIRTRPPRLPRPRPRPWYVPRP,-0.275
21,RRIRCRPPRLPRPRPRPGEPPRP,0.0366
22,RRIRKRPPRLPRPRPRPDAAPRP,0.976
23,RRIRQRPPRLPRPRPRPAWMPRP,0.0361
24,RRIRIRPPRLPRPRPRPNPGPRP,-0.209
25,RRIRERPPRLPRPRPRPPGSPRP,-0.0206

row,Sequence,shrunken log2 fold change
1,RRIRRRPPRLPRPRPRPITFPRP,0.058
2,RRIRKRPPRLPRPRPRPFSFPRP,0.0267
3,RRIRPRPPRLPRPRPRPTMHPRP,0.0766
4,RRIRCRPPRLPRPRPRPLRSPRP,0.482
5,RRIRIRPPRLPRPRPRPWYWPRP,-1.38
6,RRIRFRPPRLPRPRPRPIIHPRP,-0.795
7,RRIRKRPPRLPRPRPRPRIPPRP,0.11
8,RRIRYRPPRLPRPRPRPKHYPRP,-0.895
9,RRIRMRPPRLPRPRPRPQGTPRP,-0.000856
10,RRIRRRPPRLPRPRPRPIKGPRP,0.174
11,RRIRKRPPRLPRPRPRPVVTPRP,0.417
12,RRIRFRPPRLPRPRPRPVCDPRP,-0.255
13,RRIRRRPPRLPRPRPRPNEPPRP,0.317
14,RRIRHRPPRLPRPRPRPQHYPRP,-0.483
15,RRIRRRPPRLPRPRPRPCYYPRP,0.0129
16,RRIRCRPPRLPRPRPRPVAAPRP,0.689
17,RRIRIRPPRLPRPRPRPPNMPRP,-0.422
18,RRIRHRPPRLPRPRPRPTAAPRP,0.518
19,RRIRMRPPRLPRPRPRPNHYPRP,-0.352
20,RRIRRRPPRLPRPRPRPPPWPRP,0.868
21,RRIRWRPPRLPRPRPRPCYDPRP,-0.00133
22,RRIRPRPPRLPRPRPRPMWMPRP,0.000224
23,RRIRWRPPRLPRPRPRPRGSPRP,0.495
24,RRIRCRPPRLPRPRPRPHFGPRP,-0.219
25,RRIRMRPPRLPRPRPRPRIIPRP,-0.138

row,Sequence,shrunken log2 fold change
1,RRIRSRPPRLPRPRPRPLRGPRP,0.897
2,RRIRDRPPRLPRPRPRPCHHPRP,-0.0426
3,RRIRVRPPRLPRPRPRPTRFPRP,0.0403
4,RRIRLRPPRLPRPRPRPKMCPRP,-0.0794
5,RRIRMRPPRLPRPRPRPLKPPRP,0.528
6,RRIRDRPPRLPRPRPRPWYYPRP,0.0606
7,RRIRKRPPRLPRPRPRPISGPRP,-7.33e-05
8,RRIRTRPPRLPRPRPRPSTQPRP,-0.0187
9,RRIRRRPPRLPRPRPRPEKLPRP,0.128
10,RRIRARPPRLPRPRPRPWWYPRP,-0.172
11,RRIRNRPPRLPRPRPRPQNQPRP,-0.212
12,RRIRERPPRLPRPRPRPTNHPRP,-0.472
13,RRIRMRPPRLPRPRPRPTPMPRP,0.981
14,RRIRDRPPRLPRPRPRPLDIPRP,0.0227
15,RRIRERPPRLPRPRPRPKEMPRP,-0.192
16,RRIRTRPPRLPRPRPRPYCAPRP,-0.732
17,RRIRRRPPRLPRPRPRPNTLPRP,-0.283
18,RRIRRRPPRLPRPRPRPQWCPRP,0.00425
19,RRIRARPPRLPRPRPRPVGKPRP,0.196
20,RRIRWRPPRLPRPRPRPTYIPRP,-0.428
21,RRIRPRPPRLPRPRPRPPTNPRP,0.222
22,RRIRMRPPRLPRPRPRPNRYPRP,0.166
23,RRIRMRPPRLPRPRPRPMLCPRP,0.049
24,RRIRTRPPRLPRPRPRPQNWPRP,-0.265
25,RRIRKRPPRLPRPRPRPPPEPRP,1.32
